In patent publication US10894091B2, “Linker units and molecular constructs comprising the same” (priority 2017, dated 2021):
maleimide‑FITC = FITC conjugated through maleimide to the Cys of the Cys-containing CCK8 peptide

B1: mutated teplizumab: scFv of teplizumab with CDR3 VH cysteine substituted by serine, SEQ ID NO: 21 (protein)
scFv: QVQLVQSGGGVVQPGRSLRLSCKASGYTFTRYTMHWVRQAPGKGLEWIGYINPSRGYTNYNQKVKDRFTISRDNSKNTAFLQMDSLRPEDTGVYFCARYYDDHYSLDYWGQGTPVTVSSGSTSGSGKPGSGEGSTKGDIQMTQSPSSLSASVGDRVTITCSASSSVSYMNWYQQTPGKAPKRWIYDTSKLASGVPSRFSGSGSGTDYTFTISSLQPEDIATYYCQQWSSNPFTFGQGTKLQITRGGGGSGGGGSC
B2: DBCO-conjugated scFv specific for CD3: mutated teplizumab scFv conjugated at C-terminal cysteine with Mal-PEG5-DBCO (conjugate)
scFv: B1 scFv

What was measured:
[1] = biological target: T1, human CCK8-type B receptor molecules on Panc-1 tumor cell line (Homo sapiens, UniProt P32239); assay: Staining analysis (FACS) of binding of CCK8 peptide to CCK-type B receptor-expressing tumor cell line; assay type: cell-based; conditions: 150 μg/ml CCK8-FITC reaction mixture, on ice 30 minutes, FIG. 24
T1 construct: human CCK8-type B receptor molecules on Panc-1 tumor cell line; endogenous in cells; host or cells: Panc-1 pancreatic carcinoma cell line
T1 sequence (P32239 1-447): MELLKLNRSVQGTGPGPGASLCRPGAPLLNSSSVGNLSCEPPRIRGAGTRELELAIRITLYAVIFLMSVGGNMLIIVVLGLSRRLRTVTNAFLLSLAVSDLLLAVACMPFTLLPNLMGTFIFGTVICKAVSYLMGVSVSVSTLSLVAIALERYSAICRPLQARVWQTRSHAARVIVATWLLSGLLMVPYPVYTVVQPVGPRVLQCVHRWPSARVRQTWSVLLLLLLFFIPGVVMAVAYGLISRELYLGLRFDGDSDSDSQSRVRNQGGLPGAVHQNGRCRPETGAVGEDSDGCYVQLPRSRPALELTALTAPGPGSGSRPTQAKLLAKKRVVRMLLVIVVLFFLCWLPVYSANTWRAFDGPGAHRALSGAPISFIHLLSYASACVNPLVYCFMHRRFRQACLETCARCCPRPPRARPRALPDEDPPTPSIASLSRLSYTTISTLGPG
Protocol: The CCK8 peptide molecule was analyzed for its ability to bind to human CCK8-type B receptor molecules on Panc-1 tumor cell line. Panc-1 was established from a pancreatic carcinoma, which was extracted via pancreatico-duodenectomy specimen from an individual. Malignancy of this cell line was verified via in vitro and in vivo assays. Prior to staining, the Cys-containing CCK8 peptide was conjugated with maleimide-FITC to produce a FITC-labeled CCK8 peptide as a detective CCK8 molecule with FITC. The assay was then performed by incubating 2×10^6 Panc-1 cells with 150 μg/ml of the reaction mixture of CCK8-FITC molecule in PBS, with 1 FBS and 1% sodium azide on ice for 30 minutes in the dark. The staining of maleimide-FITC alone was used a negative control. The staining of cells was analyzed by FACS (FACSCanto II; BD Biosciences). The x-axis of histogram is the fluorescence intensity. In FIG. 24, the dark area represents the background of fluorescence distribution of Panc-1 cells, the dashed line is the fluorescence distribution of Panc-1 cells stained maleimide-FITC and the dark line is the fluorescence distribution of Panc-1 cells stained CCK8-FITC.

[2] = biological target: T2, human CD3 on Jurkat T cell line (Homo sapiens, UniProt P07766); assay: Staining analysis (FACS) of binding of anti-CD3 scFv to T cells; assay type: cell-based
T2 construct: human T lymphocyte cell which express the T cell receptor (TcR)/CD3 complexes on the cell surface; endogenous in cells; host or cells: Jurkat T cell line
T2 sequence (P07766 23-207): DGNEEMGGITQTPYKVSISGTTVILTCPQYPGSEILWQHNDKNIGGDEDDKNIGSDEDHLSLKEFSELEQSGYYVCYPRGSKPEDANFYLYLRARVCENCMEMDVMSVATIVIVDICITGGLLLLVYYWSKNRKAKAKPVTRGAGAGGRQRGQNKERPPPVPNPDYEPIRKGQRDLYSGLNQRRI
T2 sequence (P09693 23-182 partner): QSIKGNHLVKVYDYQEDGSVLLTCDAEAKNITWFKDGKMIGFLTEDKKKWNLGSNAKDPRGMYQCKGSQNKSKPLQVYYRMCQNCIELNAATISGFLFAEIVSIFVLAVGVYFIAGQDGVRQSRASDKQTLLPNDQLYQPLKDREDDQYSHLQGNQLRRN
T2 sequence (P04234 22-171 partner): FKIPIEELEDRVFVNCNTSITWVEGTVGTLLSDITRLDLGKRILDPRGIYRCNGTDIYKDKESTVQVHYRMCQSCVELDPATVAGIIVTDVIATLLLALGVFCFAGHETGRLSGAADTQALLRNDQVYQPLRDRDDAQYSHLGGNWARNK
T2 sequence (P20963 22-164 partner): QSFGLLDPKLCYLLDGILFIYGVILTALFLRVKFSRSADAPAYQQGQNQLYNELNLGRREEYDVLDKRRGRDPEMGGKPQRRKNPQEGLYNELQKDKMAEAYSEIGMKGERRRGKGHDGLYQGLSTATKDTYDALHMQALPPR
T2 sequence (P01848 whole entry partner): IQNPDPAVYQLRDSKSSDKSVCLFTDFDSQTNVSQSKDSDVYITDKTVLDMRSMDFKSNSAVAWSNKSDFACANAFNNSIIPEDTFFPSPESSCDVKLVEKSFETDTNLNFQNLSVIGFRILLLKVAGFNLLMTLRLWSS
T2 sequence (P01850 whole entry partner): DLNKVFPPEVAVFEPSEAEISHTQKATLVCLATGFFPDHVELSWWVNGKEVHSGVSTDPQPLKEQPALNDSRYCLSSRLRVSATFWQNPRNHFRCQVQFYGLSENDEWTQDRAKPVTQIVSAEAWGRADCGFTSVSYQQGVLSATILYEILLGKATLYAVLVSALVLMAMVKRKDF
Protocol: The ability of the mutated teplizumab to bind to human T lymphocytes, which express CD3 was studied with Jurkat T cell line. The mutated teplizumab was analyzed for their ability to bind to human CD3 molecules on Jurkat T cell line. Jurkat cells are immortalized line of human T lymphocyte cell which express the T cell receptor (TcR)/CD3 complexes on the cell surface.
The assay was performed by incubating 2×10^6 Jurkat T cells with 0.1 and 1 μg/ml of the scFv in PBS with 1 FBS and 0.1% sodium azide on ice for 30 minutes. Cells were washed and incubated with FITC-conjugated Protein L (ACROBiosystems Inc., Newark, USA), diluted 1:200 in PBS/FBS, at 4° C. for 30 minutes in the dark. Protein L-FITC and FITC-conjugated rabbit anti-mouse IgG.Fc (AbD Serotec) were used as secondary antibodies. The staining of secondary antibodies alone were as negative controls. OKT3, a mouse monoclonal antibody specific for human CD3, was used as the positive control. The staining of cells was analyzed by FACS (FACSCanto II; BD Biosciences). The x-axis of histogram is the fluorescence intensity.
The purity of DBCO-conjugated scFvs specific for CD3 was identified through Coomassie staining of 12% SDS-PAGE (data not shown).

[3] = flow cytometric analysis, FIG. 23C

Row | Molecule | binding to Panc-1 cells [1] | binding to T cells ([2]; Jurkat T cells, 0.1 and 1 μg/ml scFv, on ice 30 minutes, FITC-conjugated Protein L, FACS, FIG. 23B) | binding to T cells [2, 3]
1 | FITC-labeled CCK8 peptide (Ac-C(maleimide‑FITC)GGGGSDYMGWMDF-NH2; ends and bridges not checked) | bound to Panc-1 cells | – | –
2 | B1 | – | bound to T cells | bound to T cells
3 | B2 | – | – | bound to T cells
